{
  "source": "the DeepSol protein solubility set",
  "data": [
    {"assay": "soluble on expression in E. coli; label from the status in PepcDB or PDB records", "values": [
      {"sequence": "MGSDKIHHHHHHMELIEILLKKLNKNAVVTEIAKDKDPFKVLISTIISARTKDEVTEEVSKKLFKEIKDVDDLLNIDEEKLADLIYPAGFYKNKAKNLKKLAKILKENYNGKVPDSLEELLKLPGVGRKTANLVITLAFNKDGICVDTHVHRICNRWEIVDTETPEETEFELRKKLPKKYWKVINNLLVVFGREICSSKSKCDKCFKEIKEKCPYYEKIKHFENILKKFNFRKVSKNKIPNEKGTYILKIRLKEGKKIKFGKTERFFKKGYYFYIGSAFGNSMNLKNRIERHLKDDKKMHWHIDYLLKYGKIEEIYITNERVECEVANEFIKKFDFVENFGCSDCKCKSHLFYLKP", "soluble on expression in E. coli": "not soluble"},
      {"sequence": "MSLRVMIVDDHGTNRELCRFILAHIASHIDTFEDGQQAIDAMREMEILPDVILLDVMMPIKDGFVTAKEIRQAFVKHHIPIIFLTVLDDRDSFEKCLALGDDFILKPVERSVLIAKVQAHYRIVKMHNEVMEQRDELRHFREQVQYDYAISESIFTNLMEEMCHQVEHIFGIHYISTPSTIFNGDLIVVANRPHGGVYVMIADATGHGLPAAISTIPATRTFFSTAQKGLSLGEMVIELNHSLERFLPVGMMLAASVFEVRANGFEISWWGGGLPEAYLLDHHGNIVSRLISNHMPLGVLPSNEFEADVQHFKLEPNQKLVCYTDGIIEAMNEQGEYFGQERLEHVLTKAYSEALIPTLYDAVKKFSNRGKGDDLSILTMTFPITNSNSSDKALPKVVLSCIPLQTELHFPADVLRKISLMNEVRRFLTGIVSGGEDLDLLCSVLSELFANAIEHGLLELDSSLKETPDGFFEFYQLRDKRLKTLPEYHWLILKVNYQPDKQRIEIDLEHSGKGFDCQALKDASNQKSYGRGILLATQLCESLEYSNQGRRVTAVYSFARKDTLHYSLPSEGHHHHHH", "soluble on expression in E. coli": "soluble"},
      {"sequence": "MGSDKIHHHHHHMLNSMRINAFVKFQFPDDLLLNSNLVYGMVNGSTYEREIRDILGGREQAVKKYASKIPEKSDAIMSLIESPFYVTRSAGSFGADVIAIRHDFSMVIEVKSSVRPYLMFSEGSGKKQEQANRINEMCTKAGIFLTYAYRIKNVQGDPWKLFVVESKPIGRFSMVYELIPKIAKTREGNYIMKWEDGLPLSSFIEIINKKII", "soluble on expression in E. coli": "not soluble"},
      {"sequence": "MSVDSEETSSNGVVPPNSLPPKPEARFGRHVRSFSVDSDFFDDLGVTEEKFIATSSGEKKKGNHHHSRSNSMDGEMSSASFNIESILASVSGKDSGKKNMGMGGDRLAELALLDPKRAKRILANRQSAARSKERKIRYTGELERKVQTLQNEATTLSAQVTMLQRGTSELNTENKHLKMRLQALEQQAELRDALNEALRDELNRLKVVAGEIPQGNGNSYNRAQFSSQQSAMNQFGNKTNQQMSTNGQPSLPSYMDFTKRG", "soluble on expression in E. coli": "soluble"},
      {"sequence": "MSLRASDDKALQYAIAEITEIATGFGLDFYPMRYEICPAEIIYTFGAYGMPTRFSHWSFGKQFFRMKLQYDLGLSKIYELVINSDPCYAFLLDTNSLIQNKLIVAHVLAHCDFFKNNIRFSNTKRDMVESMSATAERVKAYEHKYGKEEVETFLDAVLAIQEHIDPSLMRPKLAWSIDDLEEEEVEKKKASQYDDLWNLDNRNKKQERSNVRKKKKIPPQPEKDLLLFIEEYSRELEDWQRDILTMMREEMLYFWPQLETKIMNEGWASFWHQRILREMDLTSDEAIEFAKLNAGVVQPSKTSINPYYLGIKMFEDIEERYNNPTEEMKRRGVKPGSGRDKIFEVREIEWDVSFLRNYLNKDLVMREDMYLFQRQGKEYKVIDKEWEHVRDQLVNMRTNGGFPYLVVEDGDYLKNGELYIKHSYEGIELDLKYLEKVLPYLHQLWGRTVHMESIVESKGVVFSYDGKMVHRKYVEGHHHHHH", "soluble on expression in E. coli": "not soluble"},
      {"sequence": "MLSTTTIGFPRIGNQRQLKFAMESYFKGDSGEAELLAVAHKVQSDAWALQKAAGIAVIGLDGTLYDQVLDTITWLGAIPPRFKHLSGLQRYYAMARGGAALDMSKFFDTNYHYLVPELGPDVLGPATAAGAPLQPDFSGPLDKLARGQAVVGRERAVPILIGPVTFVSLSRGCELPLDQAVARLLPTYCALLQQLAAAGAPEVQLHEPVLATSEGAGMRAEFETAYAQMAQAAGSVPLHLVTYYDDLGAAYPWAVQLPVAAVTLDFLGPPGAAVPSQTLALLQQHGFPADKRLGAGVVDGRSVWKDDGTAVALLRALLDTGAVSSDRLVVTSSAPLQHLPYDLGLELEAPKTPEAEPHLPPALAARLGFAKQKVEEIVSVARLAASPAAAAAAAGHGAVVQLQRLQQGKGVEDHTADIPAEWFSRPKPYDVRREQQLQLPAFPTTTIGSFPQTAEVRRLRQQLKSGRLTQAEYEGLIAGHIAHAVGVQEALGIDVLVHGEAERTDMVEYFGMQLGGMLFTRAGWVQSYGSRCVRPPLVVDDITYRGPMTCWEYKVASAYTRKPVKGMLTGPVTILNWSFPRKDISRAAQAMQLGLALRQEVAALEAAGCTIIQVDDPALREGLPLKRERWASYLSWAVDAFRLCTGVAAAGTQVVTHLCYSDFQDILPAIDRMDADVLTIENSRSDNAMMAALAAAGYGRDIGPGVYDVHSPVVPSVEFIKSRIRSFVDSGILSGRYDRIWVNPDCGLKTRGWPETIAALRNMVEAAAQARAELQLAGGAAVAPVAGGVEAAGKGAALGAAAGTSRCVDCCH", "soluble on expression in E. coli": "not soluble"},
      {"sequence": "MGSDKIHHHHHHMSGETFEFNIRHSGKVYPITLSTDATSADLKSKAEELTQVPSARQKYMVKGGLSGEESIKIYPLIKPGSTVMLLGTPDANLISKPAKKNNFIEDLAPEQQVQQFAQLPVGFKNMGNTCYLNATLQALYRVNDLRDMILNYNPSQGVSNSGAQDEEIHKQIVIEMKRCFENLQNKSFKSVLPIVLLNTLRKCYPQFAERDSQGGFYKQQDAEELFTQLFHSMSIVFGDKFSEDFRIQFKTTIKDTANDNDITVKENESDSKLQCHISGTTNFMRNGLLEGLNEKIEKRSDLTGANSIYSVEKKISRLPKFLTVQYVRFFWKRSTNKKSKILRKVVFPFQLDVADMLTPEYAAEKVKVRDELRKVEKEKNEKEREIKRRKFDPSSSENVMTPREQYETQVALNESEKDQWLEEYKKHFPPNLEKGENPSCVYNLIGVITHQGANSESGHYQAFIRDELDENKWYKFNDDKVSVVEKEKIESLAGGGESDSALILMYKGFGL", "soluble on expression in E. coli": "not soluble"},
      {"sequence": "MAHHHHHHMLPILLSTLEKDESATLRERAGMALELLVREAQTQRLLLGGGSSEDAPLSTLAGKQTAPTPHLAAILASLRDESDEVVVAALRVVLACHMAHNAFSVTAALVQGGLIPVLIDLIQSTNTMTQMVACCATRQLFQVKEAHVELLKLGIVATLTKAIIKAEAVALVAEAAEVASLIAEYAQGRRDAVACGTLASLLPHLHNANLTLRVAVYSAAAQITVLEAAKVQAMEVGYPEQLVGELAREDERDVLMHMLRLIYNLAEWPTARVTLRECLPRIAELLQIAEGDEGVMFALSQADRILKKKVFPV", "soluble on expression in E. coli": "not soluble"},
      {"sequence": "GSMGDTKEQRILRYVQQNAKPGDPQSVLEAIDTYCTQKEWAMNVGDAKGQIMDAVIREYSPSLVLELGAYCGYSAVRMARLLQPGARLLTMEMNPDYAAITQQMLNFAGLQDKVTILNGASQDLIPQLKKKYDVDTLDMVFLDHWKDRYLPDTLLLEKCGLLRKGTVLLADNVIVPGTPDFLAYVRGSSSFECTHYSSYLEYMKVVDGLEKAIYQGPSSPDKS", "soluble on expression in E. coli": "soluble"},
      {"sequence": "GVGRLDDLKRSPLFQNVPEDAMREALKVVTERNFQPDELVVEQDAEGEALHLVTTGVVRVSRVSLGGRERVLGDIYAPGVVGETAVLAHQERSASVRALTPVRTLMLHREHFELILRRHPRVLWNLAEMLARRVTFLNDELIAFGQNTEAALTHVFANLYRQRLAAGVPQPEVLPLGTQDIMARTSSSRETVSRVLKRLEAHNILEVSPRSVTLLDLAALEALSFEGAETD", "soluble on expression in E. coli": "soluble"},
      {"sequence": "MHCPFCDTEETKVIDSRLVSDGYQVRRRRECGHCHERFTTFEMAELIIPKIIKTDGTREPFNEDKLRSGIQHALEKRPVSADDVEKAINHIILQLRATGEREVPSKLVGKLAMNELKKLDKVAYIRFASVYLSFDDIDQFTIEIEKLKD", "soluble on expression in E. coli": "not soluble"},
      {"sequence": "MPVNSILGVFAKSPIKPLQEHMDKVYDCASLLVPFFEATITGNWDDAVQIRKQISLAEKQGDSLKREIRLTLPSGLFMPVERTDLLELLTQQDKIANKAKDISGRVIGRQLLIPQALQVPFIAYLQRCIDAVGLAQQVINELDDLLEAGFRGREVDFVAKMINELDIIEEDTDDLQIQLRRQLFALESELNPVDVMFLYKTIEWVGGLADLAERVGSRLELMLARVLEHHHHHH", "soluble on expression in E. coli": "soluble"},
      {"sequence": "VQQTERAVMLRFGRVVESDVKPGLHFKIPYVNQVRKFDARLLTLDAPTQRFLTLEKKAVMVDAYAKWRVADAERFYTATSGLKQIADERLSRRLEAGLRDQFGKRTLHEVVSGERDALMGDITASLNRMAQKELGIEVIDVRVKAIDLPKEVNRSVFERMSTEREREAREHRAKGRELAEGIRADADRQRRVIVAEAYRESEETRGDGDSKAAAIYAKAYNQDPEFYSFYRSLKAYRESFAEKRDVLVLDPSSEFFRY", "soluble on expression in E. coli": "not soluble"},
      {"sequence": "MHAQFHHVSLLARHGQENQSFYTKLLGLRFVKNTVNQDNNRMPHYFYGDYQGTPGSLVTFFIVPLLGNRYEEKNYLATIGLKIPQNSLSFWEQRLTENKIPFNKKEKSLHFSDPDDTHIILTEVPENPLKETLVVSNDIPAAVQIIGLASTEFHVPDSEKTLAFFETFLGWQAVGNTIILSETESFSVHQTTSDKTSRMGRGSMDHIAFSVADDEALQELHTRALAQGWEIEMYVSRGYFKSLYIREPGGNRVEFATLTPGFTLDEPLEHLGETLALPPFLEPKRTAIEANLYKDM", "soluble on expression in E. coli": "not soluble"},
      {"sequence": "MRGSHHHHHHGMASHMATEQTAITRATFDEVILPVYAPADFIPVKGKGSRVWDQQGKEYIDFAGGIAVTALGHCHPALVEALKSQGETLWHTSNVFTNEPALRLGRKLIDATFAERVLFMNSGTEANETAFKLARHYACVRHSPFKTKIIAFHNAFHGRSLFTVSVGGQPKYSDGFGPKPADIIHVPFNDLHAVKAVMDDHTCAVVVEPIQGEGGVQAATPEFLKGLRDLCDEHQALLVFDEVQCGMGRTGDLFAYMHYGVTPDILTSAKALGGGFPVSAMLTTQEIASAFHVGSHGSTYGGNPLACAVAGAAFDIINTPEVLQGIHTKRQQFVQHLQAIDEQFDIFSDIRGMGLLIGAELKPKYKGRARDFLYAGAEAGVMVLNAGADVMRFAPSLVVEEADIHEGMQRFAQAVGKVVA", "soluble on expression in E. coli": "soluble"},
      {"sequence": "MKTYDVVVVGAGMLGIAHAWAAARRGLSVAVVERSQRAHGATIRNFGQVLVTGQAPGVMARHARQSRELWLELAAGAGFHVRANGSLVLARSALEQDVLEEFAAARLQAEGYRAELLSGRELARLFDGRLGHHCAALRGHDDLQIYSREALPAITAYLADRFGVEFLTATLASAVREGVVQTSAGALRGRHAFVCPGHDYLTLAPELFAPLGLQVSCLQMLRVAFETRPFALDRPLLTGLSCVYYGAFSDLPTARTLRESLQRHEPDLLDNGIHLLVSPTPHGELIIGDSHRYGVDALPFNDEQVDCAMLDLAQQALGCRLRVIERWQGVYGAHGPAPFSVLPVDDQTTVAVMHSGVGMTVGLAVGENTVQARLGLEHHHHHH", "soluble on expression in E. coli": "not soluble"},
      {"sequence": "MGSDKIHHHHHHMNKDFTFTIKSSCFDENYNPSENTRITTNFANLARGKSRQENLRNTLVMMDNRFNTLAYWDNPKANRYSVELEIISVEIDIEGNGDTFPAIEILKTNIVDKKTNERIEGIVGNNFSSYVRDYDFSVLLPEHNKSHPGFSTPDNFGDLHGKLFKCFTNSKFYKDNFNKQPVICLSVSSKNTYHRTGNQHPVLGIEYQQNEPSLTDHYFERMGLQARYFMPANSVAPLAFYFSGDLLNDYTNLELISTISTMETFQKIYRPEIYNANSAAGQYYQPNLNNQDHSLTKIVYDRVERSQLAIEQGKFTEEHFIKPYKNILEQWSAHYAR", "soluble on expression in E. coli": "not soluble"}
    ]}
  ]
}
